Data from patent publication US20260193377A1.

Columns and labels:
[1] = molecular target: GCC expressed on T84 cells (UniProt P25092); assay: flow cytometry on T84 cells expressing GCC, 300 nm [sic], PE-anti human Fc secondary; Blank 30.7
[2] = molecular target: GCC expressed on T84 cells (UniProt P25092); assay: flow cytometry on T84 cells expressing GCC, 300 nm [sic], PE-anti human Fc secondary; Blank 15.0

GCC expressed on T84 cells, sequence (P25092 24-1073 limits assumed): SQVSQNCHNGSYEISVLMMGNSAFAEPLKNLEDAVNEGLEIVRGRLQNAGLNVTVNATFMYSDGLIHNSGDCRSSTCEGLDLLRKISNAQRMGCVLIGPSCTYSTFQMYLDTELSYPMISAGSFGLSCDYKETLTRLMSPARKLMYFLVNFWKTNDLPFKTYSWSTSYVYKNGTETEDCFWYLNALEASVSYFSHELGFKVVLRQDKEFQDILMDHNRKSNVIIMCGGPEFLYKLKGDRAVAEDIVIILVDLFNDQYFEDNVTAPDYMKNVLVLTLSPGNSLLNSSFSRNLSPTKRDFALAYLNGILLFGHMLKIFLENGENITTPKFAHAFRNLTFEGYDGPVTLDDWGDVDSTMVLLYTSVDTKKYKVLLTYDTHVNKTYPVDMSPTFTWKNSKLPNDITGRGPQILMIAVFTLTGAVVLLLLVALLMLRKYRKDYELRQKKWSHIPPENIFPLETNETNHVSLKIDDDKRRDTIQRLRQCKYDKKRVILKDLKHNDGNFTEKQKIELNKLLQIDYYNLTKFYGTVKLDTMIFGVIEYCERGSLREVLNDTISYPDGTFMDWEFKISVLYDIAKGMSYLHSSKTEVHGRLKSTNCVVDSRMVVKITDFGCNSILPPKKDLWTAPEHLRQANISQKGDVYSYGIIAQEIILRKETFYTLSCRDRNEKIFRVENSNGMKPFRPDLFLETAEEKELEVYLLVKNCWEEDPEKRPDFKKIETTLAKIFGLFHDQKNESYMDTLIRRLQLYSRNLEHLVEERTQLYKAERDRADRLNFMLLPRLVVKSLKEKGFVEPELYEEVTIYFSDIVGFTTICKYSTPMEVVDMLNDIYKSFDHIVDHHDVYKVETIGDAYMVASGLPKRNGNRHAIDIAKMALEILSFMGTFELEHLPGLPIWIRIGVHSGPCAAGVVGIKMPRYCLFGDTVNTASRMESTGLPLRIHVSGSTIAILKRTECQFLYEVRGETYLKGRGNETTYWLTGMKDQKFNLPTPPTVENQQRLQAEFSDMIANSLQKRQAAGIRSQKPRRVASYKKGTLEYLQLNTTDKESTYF

- Geometric mean MFI [1]: 30.7
- Geometric mean MFI [2]: 17.7
Substance: Human IgG1 isotype (antibody)
